Patent publication US20030032096A1 (US Dept. of Health and Human Services, published 2003)
“And” between values parts separate entries of the source, which are not always exact repeats. Equal entries are not always repeated. Where two headings read alike, the source gives them in different places. No end group written: not given here. *: point of attachment. 125I = [125I]*

Tests used:
[1] = target: rat PTH2 receptor (rat, UniProt P70555 25-546); test: cell-based or functional assay
[2] = target: human parathyroid hormone type 2 receptor (PTH2 receptor) (human) (UniProt P49190); test: cell-based or functional assay
Chain of human parathyroid hormone type 2 receptor (PTH2 receptor) (human) (P49190 25-550): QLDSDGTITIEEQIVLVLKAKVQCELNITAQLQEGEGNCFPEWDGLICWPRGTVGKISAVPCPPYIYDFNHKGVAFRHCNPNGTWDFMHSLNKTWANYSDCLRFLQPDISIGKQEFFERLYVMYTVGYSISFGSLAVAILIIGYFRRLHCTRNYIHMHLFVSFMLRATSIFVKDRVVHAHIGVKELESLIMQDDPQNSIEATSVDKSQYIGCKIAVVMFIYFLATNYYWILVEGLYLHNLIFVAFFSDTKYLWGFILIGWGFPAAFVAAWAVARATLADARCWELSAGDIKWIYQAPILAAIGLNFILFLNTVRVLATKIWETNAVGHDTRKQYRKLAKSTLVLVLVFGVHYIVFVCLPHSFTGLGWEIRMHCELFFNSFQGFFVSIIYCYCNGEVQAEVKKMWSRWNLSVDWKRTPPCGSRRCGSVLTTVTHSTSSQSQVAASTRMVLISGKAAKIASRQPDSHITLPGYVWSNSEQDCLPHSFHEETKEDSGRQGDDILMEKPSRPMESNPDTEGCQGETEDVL

[3] = target: human parathyroid hormone type 2 receptor (PTH2 receptor) (human) (UniProt P49190); test: membrane radioligand binding, absence of GTPγS
[4] = target: human parathyroid hormone type 2 receptor (PTH2 receptor) (human) (UniProt P49190); test: membrane radioligand binding, presence of GTPγS
[5] = target: human parathyroid hormone type 1 receptor (PTH1 receptor) (human) (UniProt Q03431); test: radioligand binding, HEK293 membranes, 10 µM GTPγS, 43 000 cpm added
[6] = target: human parathyroid hormone type 2 receptor (PTH2 receptor) (human) (UniProt P49190); test: displacement of [125I]TIP39, HEK293 membranes, centrifugation assay
[7] = target: human parathyroid hormone type 2 receptor (PTH2 receptor) (human) (UniProt P49190); test: displacement of [125I]TIP39, HEK293 membranes, with against without GTPγS
[8] = target: human parathyroid hormone type 1 receptor (PTH1 receptor) (human) (UniProt Q03431); test: displacement of [125I][Nle8,21,Tyr34]rPTH(1-34), HEK293 membranes, 10 µM GTPγS
[9] = target: human parathyroid hormone type 1 receptor (PTH1 receptor) (human) (UniProt Q03431); test: Motulsky and Mahan kinetic competition with [125I]TIP(7-39), HEK293 membranes
[10] = target: C-terminal hemaglutinin-tagged human PTH1 receptor (Example 11) (human) (UniProt Q03431); test: cell-based or functional assay
[11] = target: human parathyroid hormone type 1 receptor (PTH1 receptor) (human) (UniProt Q03431); test: radioligand binding to the PTH1 receptor
[12] = target: human parathyroid hormone type 1 receptor (PTH1 receptor) (human) (UniProt Q03431); test: direct dissociation of the radioligand from the PTH1 receptor
[13] = target: T1, human parathyroid hormone type 1 receptor (PTH1 receptor) (human, UniProt Q03431 27-593); test: cell-based or functional assay
T1 sequence (looked up): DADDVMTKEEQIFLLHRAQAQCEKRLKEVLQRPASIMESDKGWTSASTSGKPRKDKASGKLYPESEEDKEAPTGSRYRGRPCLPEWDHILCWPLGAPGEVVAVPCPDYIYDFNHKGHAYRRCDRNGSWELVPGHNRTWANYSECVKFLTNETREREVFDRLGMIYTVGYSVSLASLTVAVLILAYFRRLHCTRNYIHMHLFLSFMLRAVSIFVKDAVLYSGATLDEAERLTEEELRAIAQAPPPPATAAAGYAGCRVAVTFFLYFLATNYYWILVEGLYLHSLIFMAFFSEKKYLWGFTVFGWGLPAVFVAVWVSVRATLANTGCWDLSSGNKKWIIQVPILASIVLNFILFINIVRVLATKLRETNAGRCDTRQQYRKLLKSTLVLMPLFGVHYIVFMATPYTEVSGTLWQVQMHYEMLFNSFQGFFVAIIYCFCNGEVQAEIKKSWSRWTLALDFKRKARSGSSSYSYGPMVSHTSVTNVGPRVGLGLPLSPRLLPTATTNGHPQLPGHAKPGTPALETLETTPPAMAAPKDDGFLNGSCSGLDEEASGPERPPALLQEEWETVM

[14] = target: T1, human parathyroid hormone type 1 …; test: displacement of [125I][Nle8,21,Tyr34]rPTH(1-34), 293PTH1 membranes, filtration assay
Description: Under the conditions of the assay, the receptor-G-protein complex is the predominant receptor state detected.

[15] = target: T1, human parathyroid hormone type 1 …; test: displacement of [125I][Nle8,21,Tyr34]rPTH(1-34), 293PTH1 membranes, centrifugation assay, 10 µM GTPγS
Protocol: (§1) This assay measures the affinity of ligands for the free receptor, uncoupled from G-protein.
(§2) A similar assay design was used for the PTH1 and PTH2 receptor, in which radiolabeled agonist binding was displaced by the unlabeled ligands in the presence of 10 μM GTPγS. Briefly, cell membranes (45 μg), radioligand (50 000 cpm) and unlabeled ligand were incubated in a final volume of 1 ml assay buffer (20 mM HEPES, 100 mM NaCl, 1 mM EDTA, 3 mM MgSO₄ pH 7.5, supplemented with 0.3% non-fat dried milk powder, 100 μM (4-(2-aminoethyl))-benzenesulfonylflouride (AEBSF), 1 μg/ml bacitracin and 10 μM GTPγS) for two hours at 21° C. Membranes were collected at 18 000×g, the surface of the pellet gently washed and the radioactivity counted as described in Examples. […] To prevent greater than 20% of the total radioligand added from binding to the membranes, 15-20 μg of membranes from transfected cells were used, made up to 45 μg with membranes from non-transfected cells.

[16] = target: T2, human parathyroid hormone type 2 receptor (PTH2 receptor) (human, UniProt P49190 25-550); test: displacement of [125I]TIP39, 293PTH2 membranes, filtration assay
T2 construct: whole, on cells; also called human PTH2 receptor; hPTH2 receptor
T2 sequence (P49190 25-550): as the sequence (P49190 25-550) above

[17] = target: T1, human parathyroid hormone type 1 …; test: radioligand displacement, 293PTH1 membranes, centrifugation assay, 10 µM GTPγS
[18] = target: T2, human parathyroid hormone type 2 …; test: displacement of [125I]TIP39, 293PTH2 membranes, centrifugation assay, 10 µM GTPγS
Protocol: as §1, §2

[19] = target: human parathyroid hormone type 1 receptor (PTH1 receptor) (human) (UniProt Q03431); test: cell-based or functional assay
[20] = target: human parathyroid hormone type 2 receptor (PTH2 receptor) (human) (UniProt P49190); test: cell-based or functional assay; remark: listed apart in the source
[21] = target: T1, human parathyroid hormone type 1 …; test: radioligand binding, HEK293 membranes, filtration
Protocol: Incubations were carried out in 96-well polypropylene plates. The incubation mixture was transferred to a polyvinylidene fluoride filtration plate (MAHVN45, Millipore, Bedford, Mass.) and the membranes collected by rapid filtration using a Millipore Multiscreen vacuum manifold. […] In radioligand association experiments, radioligand and buffer were brought to 21° C. by incubation in a water bath for 15 minutes.

[22] = target: T1, human parathyroid hormone type 1 …; test: saturation binding, HEK293 membranes, filtration
Protocol: (§3) Total binding data were analyzed using Equation 3. For presentation purposes the non-specific binding has been subtracted and specific binding values expressed as pmol radioligand bound per mg of membrane protein. Data points are mean±s.e.m. of triplicate determinations. The experiment was performed three times with similar results. In most cases the error bars are enclosed within the symbol. […] Linear regression analysis was performed on pooled data to obtain estimates of kₒₙ (provided by the gradient) and koff (provided by the y intercept). […] Dissociation time course. The line is the best fit of the data to a mono-exponential function. […] Data points are the mean±s.e.m. of triplicate measurements. The experiment was performed twice with similar results. In most cases the error bars are enclosed within the symbol.
(§4) Incubations were carried out in 96-well polypropylene plates. The incubation mixture was transferred to a polyvinylidene fluoride filtration plate (MAHVN45, Millipore, Bedford, Mass.) and the membranes collected by rapid filtration using a Millipore Multiscreen vacuum manifold. […] In radioligand association experiments, radioligand and buffer were brought to 21° C. by incubation in a water bath for 15 minutes. Similarly pre-warmed membranes were then added to the wells at various time points and the assay wells harvested simultaneously.

[23] = target: T1, human parathyroid hormone type 1 …; test: kinetically derived from association and dissociation of the radioligand, HEK293 membranes
Protocol: as §3, §4

[24] = target: T1, human parathyroid hormone type 1 …; test: radioligand dissociation kinetics, HEK293 membranes, filtration; value held constant in the fit of FIG. G
Protocol: as §3, §4

[25] = target: T1, human parathyroid hormone type 1 …; test: dissociation time course of the radioligand, HEK293 membranes
Protocol: as §3, §4

[26] = target: T1, human parathyroid hormone type 1 …; test: y intercept of kon(obs) against radioligand concentration, HEK293 membranes
Protocol: as §3, §4

[27] = target: T1, human parathyroid hormone type 1 …; test: radioligand association kinetics, HEK293 membranes, filtration; value held constant in the fit of FIG. G
Protocol: as §3, §4

[28] = target: T3, human glucagon receptor (human, UniProt P47871 26-477); test: displacement of [125I]glucagon, intact COS-7 cells
T3 construct: whole, on cells
T3 sequence (P47871 26-477): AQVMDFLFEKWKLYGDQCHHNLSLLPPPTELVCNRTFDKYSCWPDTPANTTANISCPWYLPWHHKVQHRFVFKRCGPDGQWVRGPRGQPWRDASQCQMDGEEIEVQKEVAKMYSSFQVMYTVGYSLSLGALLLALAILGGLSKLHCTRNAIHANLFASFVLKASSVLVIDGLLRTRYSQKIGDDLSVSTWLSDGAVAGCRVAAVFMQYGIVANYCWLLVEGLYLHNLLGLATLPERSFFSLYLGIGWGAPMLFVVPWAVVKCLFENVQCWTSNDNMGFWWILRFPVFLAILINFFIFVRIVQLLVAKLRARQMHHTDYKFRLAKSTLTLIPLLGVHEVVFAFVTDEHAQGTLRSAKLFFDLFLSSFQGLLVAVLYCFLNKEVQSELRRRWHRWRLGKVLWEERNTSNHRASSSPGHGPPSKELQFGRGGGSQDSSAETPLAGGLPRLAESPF

Chain of rat PTH2 receptor (P70555 25-546): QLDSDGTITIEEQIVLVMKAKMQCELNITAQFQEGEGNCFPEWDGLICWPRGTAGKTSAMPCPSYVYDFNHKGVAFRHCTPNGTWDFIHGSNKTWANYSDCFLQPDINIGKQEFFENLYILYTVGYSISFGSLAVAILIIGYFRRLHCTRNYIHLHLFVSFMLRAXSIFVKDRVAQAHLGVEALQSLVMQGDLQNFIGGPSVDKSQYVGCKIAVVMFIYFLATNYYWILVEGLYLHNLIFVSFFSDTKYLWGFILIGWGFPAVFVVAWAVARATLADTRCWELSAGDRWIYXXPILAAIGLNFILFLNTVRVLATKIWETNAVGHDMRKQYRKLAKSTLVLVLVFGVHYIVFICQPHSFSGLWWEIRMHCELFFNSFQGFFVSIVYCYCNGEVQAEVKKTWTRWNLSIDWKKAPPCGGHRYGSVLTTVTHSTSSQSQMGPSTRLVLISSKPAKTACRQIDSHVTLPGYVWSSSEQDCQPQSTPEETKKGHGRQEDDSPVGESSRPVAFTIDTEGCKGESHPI

[Nle^8,18, D-Tryp^12, Tyr^34]bPTH(7-34) amide (from UniProt P01268 38-65) (peptide)
pA2 (shift of rPTH(1-34) cAMP EC50 by 1 µM antagonist) [1]: 6.5 | pA2 as concentration [1]: 310 nM | pA2 (shift of rPTH(1-34) cAMP EC50 by 1 µM antagonist) [2]: 6.5 | pA2 as concentration [2]: 320 nM

[^125I][Nle^8,21, Tyr^34]rPTH(1-34) (from UniProt P04089 32-65) (peptide)
signal-to-noise ratio [3]: 3.5 fold | signal-to-noise ratio [4]: 2 fold | total binding (cpm) [5]: 4400 cpm and 4800 cpm

PTHrP(1-34) (from UniProt P12272 37-70) (peptide)
Emax, % of response of hPTH2r to 1 µM hPTH(1-34) [1]: 7% | Emax, % of response of rPTH2r to 3 µM rPTH(1-34) [1]: 14% | Emax, % of response to 1 µM hPTH(1-34) [2]: 25%

hPTH(1-84) (from UniProt P01270 32-115) (peptide)
Emax, % of response to 1 µM hPTH(1-34) [2]: 79%

[Nle^8,21, Tyr^34]rPTH(1-34) amide (from UniProt P04089 32-65) (peptide)
IC50 [6]: 1.1 nM | fold increase of IC50 with GTPγS [7]: 1.5 fold

[D-Tryp^12, Tyr^34]bPTH(7-34) amide (from UniProt P01268 38-65) (peptide)
fold difference of IC50 against TIP(7-39) [8]: 7.3 fold

[Nle^8,18, Tyr^34]bPTH(3-34) amide (from UniProt P01268 34-65) (peptide)
koff [9]: 0.0005 s⁻¹ | Emax, % of the maximal response to rPTH(1-34) (cAMP, COS-7 cells) [10]: 26% | -logEC50 (cAMP accumulation) [2]: 8.28 | EC50 (cAMP accumulation) [2]: 5.2 nM | Emax, % of response to 1 µM hPTH(1-34) [2]: 37%

hPTH(1-34) (from UniProt P01270 32-65) (peptide)
Emax, % of response of hPTH2r to 1 µM hPTH(1-34) [1]: 22% | Emax, % of response of rPTH2r to 3 µM rPTH(1-34) [1]: 43% | maximal ligand-stimulated cAMP production [2]: 4 pmol.well^-1 | maximal ligand-stimulated cAMP production (25 µl assay volume) [2]: 6 pmol.well^-1

[^125I][Nle^8,18, Tyr^34]bPTH(3-34) (from UniProt P01268 34-65) (peptide)
signal-to-noise ratio [11]: 6 | koff [12]: 0.00102 s⁻¹

[Nle^8,18, Tyr^34]bPTH(1-34) (from UniProt P01268 32-65) (peptide)
-logEC50 (cAMP accumulation) [1]: 6.85 | EC50 (cAMP accumulation) [1]: 141 nM | Emax, % of response of hPTH2r to 1 µM hPTH(1-34) [1]: 5% | Emax, % of response of rPTH2r to 3 µM rPTH(1-34) [1]: 19% | -logEC50 (cAMP accumulation) [2]: 8.41 | EC50 (cAMP accumulation) [2]: 3.9 nM | Emax, % of response to 1 µM hPTH(1-34) [2]: 76%

DAAFRERARLLAALERRHWLNSYMHKLLVLDAP (also called bTIP(7-39)) [TIP(7-39)]
fold-shift of rPTH(1-34) EC50 by 1 µM TIP(7-39), 20% human plasma [13]: 11 fold | fold-shift of rPTH(1-34) EC50 by 1 µM TIP(7-39), absence of plasma [13]: 7 fold | fold higher affinity than TIP39 [14]: 5.6 fold | -logIC50 [15]: 8.3 | IC50 [15]: 5 nM | fold lower affinity than full-length TIP39 [16]: 70 fold | fold higher affinity than TIP39 [17]: 12 fold | -logIC50 [18]: 7.01 | IC50 [18]: 98 nM | fold lower binding potency than full-length TIP39 [18]: 32 fold

B1: TIP(2-39) (peptide)
peptide: LALADDAAFRERARLLAALERRHWLNSYMHKLLVLDAP
notes: N-terminally truncated TIP39 analogue from Biomolecules Midwest
binding result [16]: binds

AVSEIQLMHNLGKHLASVERMQWLRKKLQDVHNF (peptide, UniProt P04089 32-65, looked up, also: binding, rPTH(1-34) denotes the [Nle8,21, Tyr34] analogue) [rPTH(1-34)]
-logEC50 (cAMP accumulation) [1]: 7.09 | EC50 (cAMP accumulation) [1]: 81 nM | EC50 (cAMP) [1]: 49 nM | Emax, % of response of hPTH2r to 1 µM hPTH(1-34) [1]: 46% | Emax, % of response of rPTH2r to 3 µM rPTH(1-34) [1]: 100% | maximal ligand-stimulated cAMP production (50 µl-volume assays) [1]: 2.1 pmol.well^-1 | EC50 (cAMP production, HEK293 cells) [19]: 0.5 nM | -logEC50 (cAMP accumulation) [20]: 9.39 | EC50 (cAMP accumulation) [20]: 0.41 nM | EC50 (cAMP production, HEK293 cells) [20]: 58000 nM | EC50 (cAMP) [20]: 0.15 nM | Emax [20]: 85% | Emax, % of response to 1 µM hPTH(1-34) [20]: 94%

B2: [^125I]TIP(7-39) (peptide)
peptide: DAAFRERARLLAALERRHWLNSY(125I)MHKLLVLDAP
notes: 2000 Ci/mmol; also called radiolabeled TIP(7-39)
total binding: non-specific binding ratio [21]: ~5 | Kd [22]: 1.3 nM | Kd [23]: 0.57 nM | koff [24]: 0.00085 s⁻¹ | koff [25]: 0.000833 s⁻¹ | koff [26]: 0.00128 s⁻¹ | kon [27]: 1.48e+06 M⁻¹ s⁻¹

SEIQFMHNLGKHLSSMERVEWLRKKLQDVHNF (peptide, UniProt P01268 34-65, looked up) [bPTH(3-34)]
-logEC50 (cAMP accumulation) [20]: 8.05 | EC50 (cAMP accumulation) [20]: 8.9 nM | Emax, % of response to 1 µM hPTH(1-34) [20]: 38%

B3: tuberinfundibular peptide of 39 residues (TIP39), bovine sequence, synthetic (peptide)
peptide: SLALADDAAFRERARLLAALERRHWLNSYMHKLLVLDAP
notes: Chemically synthesized 39 residue peptide (Anaspec or Biomolecules Midwest); also called bTIP39; synthetic hypothalamic peptide
maximal effect against PTH [1]: ~3 fold | binding result [28]: no binding (tested: 1 µM)

ADDAAFRERARLLAALERRHWLNSYMHKLLVLDAP [TIP(5-39)]
binding result [16]: binds

ALADDAAFRERARLLAALERRHWLNSYMHKLLVLDAP [TIP(3-39)]
binding result [16]: binds

B4: rPTH(1-84) (peptide, UniProt P04089 32-115, looked up)
peptide: AVSEIQLMHNLGKHLASVERMQWLRKKLQDVHNFVSLGVQMAAREGSYQRPTKKEENVLVDGNSKSLGEGDKADVDVLVKAKSQ
-logEC50 (cAMP accumulation) [1]: 7.72 | EC50 (cAMP accumulation) [1]: 19 nM | Emax, % of response of hPTH2r to 1 µM hPTH(1-34) [1]: 28% | Emax, % of response of rPTH2r to 3 µM rPTH(1-34) [1]: 97% | -logEC50 (cAMP accumulation) [20]: 9.24 | EC50 (cAMP accumulation) [20]: 0.58 nM | Emax, % of response to 1 µM hPTH(1-34) [20]: 98%
